In the DeepSol protein solubility set:

Assay: soluble on expression in E. coli; label from the status in PepcDB or PDB records

Sequence | soluble on expression in E. coli
MSLRERPVIDELSKVKKLKLTGQTEALFESWRSSWDEIETRLFPDLEEVLLEAEMNTDRYKFRSATHAENDIEQMLVVIEKQMDQILGGLKELLISEEKNAKESRATKEKFAELRREVLTRGFKLGETLPYIETKLSELSESLNSYDSLTDQGDHLEAREIVIVVQKEMQVIEAQMERIPSLLHETDTILPEEMTKLRAGYEEMVRKGYYLAQMELDKEISRMKNQIDKMKKNVINLDLDEAEQGVEELHNEIDLFYDTLEHEAEARHFVKENHSPTSDKLQRQNAVSDALAEQITEVKQTYHVAEDDLAVYLKTSAKLSEAKENFEQLTALIASGEIAYSAAQDTLKEIDAALITISAEQDKFAEELRSLRKDELEARDDAERMRRAIITLDRKMERERLPGLPEEYLSLREHMGESINALEKRLEEKPLNMKAVSQDWRIAEEDLTHLTEKAEEMMENVRLVEHVIQYANRYRLRNKELADELVQAENHFYNDYQYKKALEIAVTALEKVETGAFKKVEKAYESKVSVDEGHHHHHH | not soluble
MSLTHSCRLSVAPMLDWTDRHCRYFHRLLSAQTLLYTEMVTTGAIIHGRGDFLAYNQEEHPVALQFGGSNPKDLAHCAKLAQERGYDEINLNVGCPSDRVQNGRFGACLMGEPDLVAECVAAMRAVVDIPVTVKTRIGIDDQDSYEFLTQFIATVAEKGGCEQFTIHARKAWLSGLSPKENREIPPLDYPRAYQIKRDFPHLTIAVNGGVKSLEEAKLHLQHLDGVMIGREAYQNPYLLAEVDQQIFGLETPVKKRSQVIHEMMPYIERELSQGTHLGHMTRHMLGLFQNMPGARQWRRHISENAHKPGAGLEVVEQALAKIPYQELGEGHHHHHH | soluble
RNAAHQLYYRPTPDDGYLLAGYPWFDVRARDLFVALPGCTLCVEAPERFERIVNTVIPAMERYMRLHEDDDTIHGLHEPDVGIWAIWAIQQYARRNGLEAAKRFGSFVSEVVSYYLSAQHPTAQIRENGLLYVLGTGFPLSWMDAKLNGKAVIPREGYLVELNALWYNALCFERELNGEKPEIGEIISRIERSFPDTFLNCYNYLFDYVQDGKAQDWSVRPNMLFAISLPYSPLQRDRQLQVLEIITRELLTPKGLRSLSPKSEGYRPYCRGKQEERELAYYNGSVWPWLLGQYTEAYLRLYGNSGVTFLERMLIGMEEELQMHGIGTISELFDGNPPFMGRGAISFAMSVGEILRAKELLNRTESDMHLSVRHMYNYTKWKG | not soluble
MSALYRRFRPLTFQEVVGQEHVKEPLLKAIREGRLAQAYLFSGPRGVGKTTTARLLAMAVGCQGEDPPCGVCPHCQAVQRGAHPDVVEIDAASNNSVEDVRELRERIHLAPLSAPRKVFILDEAHMLSKSAFNALLKTLEEPPPHVLFVFATTEPERMPPTILSRTQHFRFRRLTEEEIAFKLRRILEAVGREAEEEALLLLARLADGALRDAESLLERFLLLEGPLTRKEVERALGLPPREALAEIAASLARGKTAEALGLARRLYGEGYAPRSLVSGLLEVFREGLYAAFGLAGTPLPAPPQALIAAMTALDEAMERLARRSDALSLEVALLEAGRALAAEALPQPTGAPSPEVGPKPESPPAPEPPRPEEAPDLRERWRAFLEALRPTLRAFVREARPEVREGQLCLAFPEDKAFHYRKASEQKARLLPLAQAHFGVEEVVLVLEGEKKSLSPRPRPAPPPEAPAPPGPPEEEVEAEEAAEEAPEEALRRVVRLLGGRVLWVRRPRTREAPEEEPLSQDEIGGTGI | soluble
MKIAIVTDSTAYLPERIKDHPNLFVIPIPVILDGKIYNEGIDIEADEYYALLNNSKEFPTTSQPALGEVLELYKSIAEQGYDTIISIHLSSGISGFVHTLHGLTDEIPGVALYPYDSKITSMPMGHMVEAALDLTEEKASLEEIFAKLDLIRDNTYAYLIVEDLNNLVRGGRLTNGAALIAGLLKIKPILTFEDGKIVLFEKIRSTKKAFARAEKIIGERNAGIEAPVKLYVIHANNRIVAEKEQAKLQKLYPNAEIEIGHFGPVIGTHLGEKAIGLAISAQ | not soluble
MSTLLKSAKSIVPLMDRVLVQRIKAQAKTASGLYLPEKNVEKLNQAEVVAVGPGFTDANGNKVVPQVKVGDQVLIPQFGGSTIKLGNDDEVILFRDAEILAKIAKD | not soluble
MEHLLAIALGPVQEFIATARRTRDLYAGSRLLSEAAARAAKALAREVGAKNLIFPAPEDEAGLERLAGAGIPNVLLVRVPEGKDPRGLGEQALGAARDYLRERAEEVLGPRRDLLFWREALAQVEDLLEGYYAYLPLEGDYPRARERLMALLAARKNTRDFAPVSWGSPAYKSSLDGARESVLRLPEKEADHLRVRLGLRPGEYLAGPDLLKRWWKAGHGFLSTTHMAALPFWEGVRRAGLEAVLKEALEELGGLVGEEARAEVRHPVLRDTPFGEWDVRLLYESRLEEFPSLAEDPGLLEKARDRLRALWRRLFPKVRVPPGAYYALLHADGDRMGETLDGLPSPEAHRRFSNALALGFAAQVKDIVEAHGGGLVYSGGDDVLALLPLHTALMAARALADRFREAMAPFGREGRAPSLSVGLAVVHHLEPLQDALDLARRAEKWAKEGEPKRNALCVAYSPRSGAERLVRGRWDENPPLTRRLLRYADLLRAGEVPSRAAYELLALVREAGEALSGEALVAEALRILGRKEMKRAYREELEAWLRTGEDVRRLAEELILARPFAEALDQAGVPVESREVWDAH | soluble
MGSDKIHHHHHHMQSYSLAELNKETTIGGIGKTVERDVPVIDLADFDNRKAEIADQLWEASVGIGFFQVYNHGIPQQDIDAAFETAWSFFELPADIKAQYPMPKGTNAGWEFKAQVRPSTGTPDNKESYQITRPMMGGLWPSEEELPDFKEKMLRFERQNWELGMRILSCFALKMGFAEDFFTKAHDPASSEYQSTQRLIHYMSMEHAKPEDFEFWRAGAHSDFDCLTILHQKEGEGGLQVCPGKDAASGEWTDVPPKNGYITCNIGDMLMRWSDDQLQSTLHRVRMPRPGEYLGRRLSLPFFCQANRDAVMQGPLGKYEAITAGDYLTQRINANFARK | not soluble
MMDCRLGCGACCIAPSISSPIPGMPNGKPAGVRCVQLNEDNLCQLFGRPERPKVCHDFKACPVVCGKTNQQALANLTELERLTLEHHHHHH | not soluble
MEHITLFTDILPEEQERMRICFHAREMTFRNGETIMEYSSSMKKIGLILYGRAILYCCDTEGNQYLIDEFNKDAVFGEPFLLPADSQHYYVCAAEETKIMFIDYEHVIKRCDQACYHHSQMVSNLLQLTAIQSRQQNERIYMLSRSSTRKKLMAYLNALSTEKHSKDLKLPMSYTALAQYLSVDRSAMTRELKNLEEEGIIKKSGKQIHII | not soluble
MGSDKIHHHHHHMGEGLSVIGFDADDTLWQNESFFRLTEDKFAELLADFAEGAHLRERLLALETKNIGHYGFGIKGFMLSMIETAVEVTEGRVDGSVISKILEMGQDMLRHPIHLLPHVEETLGTLSDRYPLVLITKGDLLHQEQKLAASGLGDLFAGVEIVSAKLPSTYDTAFSVHGVGPKHAMMVGNSMKSDIRPALDAGAFAVYVPHGLTWELEHTETPVGHPRYHELPDLGGLIDLIETVTD | not soluble
MAHHHHHHMPSMSASRQAPKVSATARATKFSTIRKLPTAEHSTSPVAAAPTSSEEPSRLALISFDVDATIDTVNLLHEEQHRVSEEDATDKRIGRYHYAQLVARLNEQRSLYQSTAMFVETMLKEVNHSTEASVAMKASAATWGLKLLAKHAGHGAINAVLESLLPALYCEYNPKKLCSAPPAVQLQVRRPDVIMDNPYFTHSMFVDEVQVDKRSATKLQKSLEAALRANDQRRSIVCHLIERRRQQQLEVTFRCWRHHVRQQHLLRMMGDNTAKQRAEEMSRLRVQTVFYHWKLLVERSRSTYLTERLHEAAFQLENAKNQFQLQCYRADRLVKTAKEATEEMERVSQINKGLQRQVDELKEEQVRKEREYKEKLTRNVTQVLKLLETYDSLARVLLHSKQADEYVMPEKPLLARHSQSGDGGQEASENEASRLR | not soluble
MGSDKIHHHHHHMKSAPDWIAHPDTPYLLIDEAKLKSNINYLKQRVESLGSHLRPHLKTLRTLEAAGYLLDSKSAPATVSTLAEAEAYAKAGYTDLLYAVGIAPAKLKRVAALRQQGINLHILLDNITQAQAVVDYAAEFGQDFSVFIEIDSDDHRGGIKPSDSKLLTIAKTLGEHFTGLMTHAGGSYACNTEQGLKNFAKQECDAVRIARNNLETAGIHCAITSVGSTPTAHFGEDFSDISEVRAGVYTTFDLVMKNIGVCDFSHIAMSVVTTVIGHNKEKNWLLTDSGWMALSRDSGTAGQNRDFGYGQVCKIDGSVLDGLCVNSTSQEHGVIELSDAYQLEDFPVGHQLRIMPNHACATAAMHPVYHVLMSDGSHNTWQRITGW | not soluble
MGSDKIHHHHHHMTPYRDNTPHLARDNHLLFTELARDYCLSMPISFKEALDRAQDATGLSMRKLADKAGVSYEQLKKVRQGKSQTTNAEDALKIATAVGVSFEQFMSGEFDASPTISIAGKVGAGAQVPVFDAYEKGDGPQVECPPGIGPHGVVAVEVEGDSMEPVYSAGDLLFYSRNGHDSVPDDVIGYKCVCEDADGMGWVKQVKAGDEPGLFHLISLNPTGANMWNVRLKWAARVRLHWPAEFARKK | not soluble
MSLKLYKEIINLIDNHQATMVEQLHQFCEINSGTTNLTGLAIMAETLCSAFKPIADTTELITLPPLSVIDMTGNTVMQSCGDVLFISKRPHLKRRILLSGHMDTVYSASNPFQKLSYLDANQINGPGVADMKGGLIVILHALAAFENTRFAEDMGWDVLINSDEEIGSPTSGSLFNKLAHRYQAALVYEPAMTPNGTLAKNRKGSGKLTLVATGRAAHAGRAFDEGRNAICYLAEAITAVHALNGQKNGVTINVGKIAGGEALNVVPDKAVAQLDIRISLPEDEIWVRNELNKIIKQLERPDYSLNVHGTFGRPVKRICAGTERLFHRIQKIGEALGLTIDWKDSGGCCDGNNLAHYGLPVLDTLGVRGGNIHSSDEYILLDSLSERAALSALLLIDLAQGGLEDLIKEGHHHHHH | soluble
MGSDKIHHHHHHMTALSSVDFCLPEHITPEIFLRDYWQKKPLVIRNGLPEIVGQFEPQDIIELAQNEDVTARLVKTFSDDDWKVFFSPLSEKDFQKLPEKWSVLVQNLEQWSPELGQLWNKFGFIPQWQRDDIMVSYAPKGGSVGKHYDEYDVFLVQGYGHRRWQVGKWCDASTEFKPNQSIRIFDDMGELVIDEVMNPGDILYIPARMAHYGVAEDDCLTFSFGLRYPNLSNLIDGISKGFCHQDPDLNLSEFDLPLRLSQSEQRTGKLADENIQAMKQLLLDKLAHSEAFDTLFKQAVASAVSSRRYELLVSDEMCDPDEVRSILEEDGAFLSQDNNCKLLYTENPLRIYANGEWLDELNIIESEVLKRLSDGESLDWAFLSDLANKTEDPETSMDLLLDSICNWVDDGWALIE | not soluble
MAHHHHHHMTVYHEQFALVPPQYPRRAVQEAENHRALAALYELVENAIATAENYVAYTEGRLVPLSSRGSELLAASKELRERYRHEAPCGWTEQKVMQHCEQEVTVEEMAELLLRPPLDVSGIRSILRTLQETRTQLPRGRFLLMRDNLSALKPHQPPDLVRDLSDVCGALYEIQYVDLMAELRAELSELDGERDKVQEKLKDAIHLYERALAKGDVVEVERAHRQLIAARYEFVNACAKLMHQILGEDMASQESGFAAEMEALRRDATDSISRFVEALHERRQAFRNDLHNCDKKRLEEDGNHQKCLEAYNAEERETAAQIGQIVEQKKKLVEELRQKARELRDITLKQKEMVEAQVRAKRAEEERVTAYNEFVNMEEQQKHRLLRCLAYFDGMEELTADLRSYVDEMVTRIPQQNLRQVIDQLNDIEAEAFMNAYSGFVSCCGELTVKKMHRLDTLERQARLLEHNRDSAMESLDPNMSNYRLELDDIIEQMKGVSGVINALNATQDAGEQLFQSVEKGVLAKYERSGTPFVHPLQEYGIKSVEERNRFVDRSMHYVENEERKVFEKRNVLNRMRQAVEEDEAATESAIRNLPAAPEY | soluble
